# Source: publication PMC9276737
# Key:
# Settings in all cases: 2 nM 32P-labelled DNA; binding buffer, salt, pH and temperature only by reference (refs 50, 51); native 6% polyacrylamide gel for EMSA
# [1] = molecular target: T1, MgaSpn-His (Streptococcus pneumoniae R6) (UniProt Q8DNN5); test: EMSA
# T1 sequence: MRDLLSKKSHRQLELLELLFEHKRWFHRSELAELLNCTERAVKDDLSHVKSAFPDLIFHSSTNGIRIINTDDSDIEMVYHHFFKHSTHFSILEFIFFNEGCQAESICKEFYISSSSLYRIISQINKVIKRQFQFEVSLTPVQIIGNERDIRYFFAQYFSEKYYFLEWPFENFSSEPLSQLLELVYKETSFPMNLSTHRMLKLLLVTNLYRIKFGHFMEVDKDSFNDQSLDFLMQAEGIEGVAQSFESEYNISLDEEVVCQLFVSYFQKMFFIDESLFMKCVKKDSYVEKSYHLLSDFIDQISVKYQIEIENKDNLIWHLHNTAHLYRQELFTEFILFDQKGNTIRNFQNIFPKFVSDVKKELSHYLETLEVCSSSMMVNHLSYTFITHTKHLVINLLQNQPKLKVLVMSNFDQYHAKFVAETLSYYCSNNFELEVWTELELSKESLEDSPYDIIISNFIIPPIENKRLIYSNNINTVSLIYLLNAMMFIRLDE
# [2] = molecular target: T2, PclR-His (Streptococcus pneumoniae R6) (UniProt Q8DP24); test: EMSA
# T2 sequence: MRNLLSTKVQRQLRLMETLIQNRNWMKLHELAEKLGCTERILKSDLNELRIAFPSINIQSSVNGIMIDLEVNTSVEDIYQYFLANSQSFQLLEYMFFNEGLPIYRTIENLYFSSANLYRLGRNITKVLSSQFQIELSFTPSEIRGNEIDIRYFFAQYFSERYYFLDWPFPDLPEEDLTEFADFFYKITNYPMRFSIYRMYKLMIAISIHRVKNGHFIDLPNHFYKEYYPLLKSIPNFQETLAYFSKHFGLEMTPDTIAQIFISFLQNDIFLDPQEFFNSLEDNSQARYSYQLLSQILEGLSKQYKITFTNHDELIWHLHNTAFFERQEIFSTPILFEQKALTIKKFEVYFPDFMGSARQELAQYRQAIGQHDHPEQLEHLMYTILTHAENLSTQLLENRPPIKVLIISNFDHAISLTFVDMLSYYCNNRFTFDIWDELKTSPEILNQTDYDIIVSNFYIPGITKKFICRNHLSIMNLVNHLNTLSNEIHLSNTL
# [3] = molecular target: T1, MgaSpn-His (Streptococcus pneumoniae R6); test: DNase I footprinting
# [4] = molecular target: T2, PclR-His (Streptococcus pneumoniae R6); test: DNase I footprinting
Sequence,binding [1],binding [2],binding [3],binding [4]
CTCCTAGATAGTATTTTATAGTTTACAATGTACAACTATTTGAGGCATTAATCAATATTTTCTGAACAATTAATATATTCTGTTTTTGCACTTAAAAGCCACTTATATTATTCTAATTTTTCCGATTACTAACGACAATTTTCTTGCTCTAATTTTTTTATACTACTTAGACAAAAAAAGATATAATGAATTATGGAGGAAATACCCGTATGAGAAACCTTTTATCCACAAAAGTTCAAAGACAATTACGCTTAATGGAAACCCTAATTC (double strand) [270-bp PpclA promoter fragment],binds,binds,binds,binds
CGGCTAGTTCATGTAATTTCATCCAATTACGATTCTGAATTAGGGTTTCCATTAAGCGTAATTGTCTTTGAACTTTTGTGGATAAAAGGTTTCTCATACGGGTATTTCCTCCATAATTCATTATATCTTTTTTTGTCTAAGTAGTATAAAAAAATTAGAGCAAGAAAATTGTCGTTAGTAATCGGAAAAATTAGAATAATATAAGTGGCTTTTAAGTGCAAAAACAGAATATATTAATTGTTCAGAAAATATTGATTAATGCCTCAAATAGTTGTACATTG (double strand) [281-bp PpclA promoter fragment],–,–,binds,binds
CAAATTCTTTAATTGTTGCTATTATATAATTTTTAAAATTAAAAATATAATCTTTAGACTTGAATTTGATTCTGTATTCACGCCCTCAATAGACGGTAAAATAAGAAAATTGTTTATATATTGTCTCCGTAGTGTTATTATACGAAATAAAAGATTTTAGGAAAAGTCGTTATATCATGCTATACCTATTCTTTGTGGTATAATTGCAAGAGGTTTAATCCG (double strand) [222-bp P1623B promoter fragment],–,–,–,no binding
